Source: US20130330346A1 (Novartis, published 2013)
Changes are numbered by the printed parent chain. Read-outs that look alike come from different tables or passages of the source. Blank lines part the entries; values can stand above or below the binder they belong to. Ends that are not written are not given here.

Key:
Human CXCR2 [1] = target: T1, Human CXCR2 (human, UniProt P25025 1-360); assay: cell-based or functional assay
T1 sequence: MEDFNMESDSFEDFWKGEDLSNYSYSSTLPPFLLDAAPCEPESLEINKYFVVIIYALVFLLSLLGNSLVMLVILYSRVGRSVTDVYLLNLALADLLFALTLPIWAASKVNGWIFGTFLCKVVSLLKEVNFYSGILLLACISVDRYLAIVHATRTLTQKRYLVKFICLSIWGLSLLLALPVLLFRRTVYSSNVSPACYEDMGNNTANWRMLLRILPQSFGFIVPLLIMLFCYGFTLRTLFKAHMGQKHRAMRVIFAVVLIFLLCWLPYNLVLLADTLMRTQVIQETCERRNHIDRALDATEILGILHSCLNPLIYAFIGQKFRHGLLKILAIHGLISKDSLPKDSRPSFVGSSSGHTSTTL

Cynomolgus CXCR2 [2] = target: T2, Cynomolgus CXCR2 (cynomolgus, UniProt Q28519 3-353 (rhesus entry)); assay: cell-based or functional assay
T2 chain: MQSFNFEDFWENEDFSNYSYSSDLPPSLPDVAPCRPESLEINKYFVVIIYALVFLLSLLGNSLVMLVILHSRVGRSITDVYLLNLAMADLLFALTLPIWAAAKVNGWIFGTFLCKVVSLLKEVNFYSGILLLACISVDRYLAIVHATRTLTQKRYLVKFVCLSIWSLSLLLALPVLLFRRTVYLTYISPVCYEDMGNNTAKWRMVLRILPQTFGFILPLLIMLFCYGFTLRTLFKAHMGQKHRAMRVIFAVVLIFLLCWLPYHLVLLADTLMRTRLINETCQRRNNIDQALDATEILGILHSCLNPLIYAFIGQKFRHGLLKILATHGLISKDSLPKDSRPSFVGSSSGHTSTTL

Cynomolgus CXCR2 [3] = target: T2, Cynomolgus CXCR2; assay: FACS hGro-α competition
Human 1to19 peptide = target: T3, Human 1to19 peptide (human); assay: ELISA, periplasmic extract on biotinylated peptide
T3 construct: First 19 N-terminal amino acids of human CXCR2, captured on neutravidin; also called human CXCR2 1 to19 peptide; 1-19 Nter peptide
T3 peptide: MEDFNMESDSFEDFWKGED-biotin
Experimental: In another setup, periplasmic extracts were analyzed for binding to human 1 to 19 peptide by ELISA. MaxiSorb plates (Nunc, 430341) were coated for two hours with neutravidin followed by one hour blocking (PBS, 1% casein). Then 100 nM biotinylated human 1 to 19 peptide was added to these plates for one hour (PBS, 0.1% casein, 0.05% tween20) followed by one hour incubation with 10-fold dilutions of periplasmic extracts. Unbound periplasmic extracts were washed away (PBS supplemented with 0.05% tween20) and bound Nanobodies were detected using mouse anti-myc (Roche, 11667149001) followed by rabbit anti-mouse-HRP conjugate (Dakocytomation, P0260). Table 8 summarizes the ratios of the binding signals of anti-CXCR2Nanobodies over an irrelevant control Nanobody.

Human CXCR2 [4] = target: T1, Human CXCR2; assay: cell-based or functional assay; remark: listed apart in the source
Cynomolgus CXCR2 [5] = target: T2, Cynomolgus CXCR2; assay: cell-based or functional assay
Human CXCR2 [6] = target: T1, Human CXCR2; assay: cell-based or functional assay; remark: listed apart in the source
Cynomolgus CXCR2 [7] = target: T2, Cynomolgus CXCR2; assay: cell-based or functional assay
Human CXCR2 [8] = target: T1, Human CXCR2; assay: FACS competition vs 3 nM FMAT-Blue Gro-α
Experimental: (§1) Purified monovalent anti-CXCR2Nanobodies were titrated against 3 nM FMAT-Blue-labeled Gro-α in the FACS ligand competition assay on human and cynomolgus CXCR2 (Table 10). On human CXCR2, blocking potencies range between double digit nM and sub-nM whereas on cynomolgus CXCR2, they range between single and double digit nM.

Cynomolgus CXCR2 [9] = target: T2, Cynomolgus CXCR2; assay: FACS competition vs 3 nM FMAT-Blue Gro-α
Experimental: as §1

Human CXCR2 [10] = target: T1, Human CXCR2; assay: FACS hGro-α competition
Cynomolgus CXCR2 [11] = target: T2, Cynomolgus CXCR2; assay: FACS hGro-α competition
Human CXCR2 [12] = target: T1, Human CXCR2; assay: cell-based or functional assay; remark: listed apart in the source
Cynomolgus CXCR2 [13] = target: T2, Cynomolgus CXCR2; assay: cell-based or functional assay
Human CXCR2 [14] = target: T1, Human CXCR2; assay: FACS, periplasmic extract vs FMAT Blue Gro-α
Experimental: Periplasmic extracts (as described above) were analyzed on FACS for competition with Gro-α in binding to human CXCR2. 2×10⁵ cells were incubated with a ½ dilution of periplasmic extracts in FACS buffer (PBS+10% fetal bovine serum (Sigma, F7524)) for 30 minutes at 4° C. Then, an equal volume of 6 nM of FMAT Blue-labeled human Gro-α in FACS buffer was added and incubation was continued for another 30 minutes at 4° C. in the dark. Cells were then washed three times in FACS buffer and finally resuspended in FACS buffer. Dead cells were stained with propidium iodide (Sigma, P4170). Samples were then analyzed on a FACSarray (BD Biosciences).

FLIPR hGro-α IC50 (Human CXCR2 [1]): 150 nM | FLIPR hGro-α IC50 (Cynomolgus CXCR2 [2]): 1100 nM | IC50 (Cynomolgus CXCR2 [3]): 33 nM | ratio of binding signal relative to blank control (Human 1to19 peptide): 75.5 ratio | Human WBSC IC50 (rhGROα) (Human CXCR2 [4]): 19.7 nM | Cynomologus WBSC IC50 (rhGROα) (Cynomolgus CXCR2 [5]): > 100 nM | FLIPR % inhibition max (Human CXCR2 [6]): 100% | FLIPR IC50 (GRO-α induced calcium release) (Human CXCR2 [6]): 153 nM | [35S]GTPγS % inhibition max (GRO-α) (Human CXCR2 [6]): 71.8% | [35S]GTPγS IC50 (GRO-α) (Human CXCR2 [6]): 15.4 nM | FLIPR % inhibition max (Cynomolgus CXCR2 [7]): 100% | FLIPR IC50 (GRO-α induced calcium release) (Cynomolgus CXCR2 [7]): 4080 nM | % inhibition of max (Human CXCR2 [8]): 35% | IC50 (Human CXCR2 [8]): 0.857 nM | % inhibition of max (Cynomolgus CXCR2 [9]): 63% | IC50 (Cynomolgus CXCR2 [9]): 39.5 nM
B1: 54B12 (VHH)
VHH: EVQLVESGGGLVQAGGSLTLSCAVSGSTFRINTMGWYRRAPGKQRELVAARDRGGYINYVDSVKGRFTVSRDNAKPTMYLQMNSLKPEDTAVYYCHAGTQDRTGRNFDRWGQGTQVTVSS
notes: Tested as periplasmic extract (pAX50) and as purified His6-tagged protein (pAX100); also called 054B12; not shown: C-terminal c-myc tag and His6 tag coded by the vector

FLIPR hGro-α IC50 (Human CXCR2 [1]): 59 nM | FLIPR hGro-α IC50 (Cynomolgus CXCR2 [2]): 3500 nM | IC50 (Cynomolgus CXCR2 [3]): 13 nM
B2: CXCR20104 (VHH)
VHH: B1 VHH with V5L, A14P, T19R, R39Q, V69I, A74S, K86R, Q115L
notes: also called CXCR2104

IC50 (Human CXCR2 [10]): 12 nM | IC50 (Cynomolgus CXCR2 [11]): 63 nM | ratio of binding signal relative to blank control (Human 1to19 peptide): 0.8 ratio | Human Chemotaxis IC50 (GROα) (Human CXCR2 [4]): 48.5 nM | Human WBSC IC50 (rhGROα) (Human CXCR2 [4]): 11.6 nM | Cynomologus WBSC IC50 (rhGROα) (Cynomolgus CXCR2 [5]): > 100 nM | FLIPR hGro-α IC50 (Human CXCR2 [12]): 94 nM | FLIPR hGro-α IC50 (Cynomolgus CXCR2 [13]): 800 nM | FLIPR % inhibition max (Human CXCR2 [6]): 100% | FLIPR IC50 (GRO-α induced calcium release) (Human CXCR2 [6]): 39.9 nM | [35S]GTPγS % inhibition max (GRO-α) (Human CXCR2 [6]): 100% | [35S]GTPγS IC50 (GRO-α) (Human CXCR2 [6]): 50.3 nM | FLIPR % inhibition max (Cynomolgus CXCR2 [7]): 100% | FLIPR IC50 (GRO-α induced calcium release) (Cynomolgus CXCR2 [7]): 640 nM | FACS Gro-α competition (% inhibition) (Human CXCR2 [14]): 85.9% | % inhibition of max (Human CXCR2 [8]): 93.9% | IC50 (Human CXCR2 [8]): 17.2 nM | % inhibition of max (Cynomolgus CXCR2 [9]): 53% | IC50 (Cynomolgus CXCR2 [9]): 64.1 nM
B3: 97A9 (VHH)
VHH: EVQLVESGGGLVQPGGSLRLSCVASGSIVRINTMGWYRQTPGKQRELVADITSGGNINYIDAVKGRFTISRDNTKNTVYLQMNSLKPEDTAVYYCNAEIVVLVGVWTQRARTGNYWGQGTQVTVSS
notes: Tested as periplasmic extract (pAX50) and as purified His6-tagged protein (pAX100); also called 097A09; not shown: C-terminal c-myc tag and His6 tag coded by the vector
